Experimental data published in patent publication US20210324015A1.

Target: Pfs25 (Plasmodium falciparum) (UniProt P13829)
Test: cell-based or functional assay

Sequence of UniProt P13829 (P13829 17-196): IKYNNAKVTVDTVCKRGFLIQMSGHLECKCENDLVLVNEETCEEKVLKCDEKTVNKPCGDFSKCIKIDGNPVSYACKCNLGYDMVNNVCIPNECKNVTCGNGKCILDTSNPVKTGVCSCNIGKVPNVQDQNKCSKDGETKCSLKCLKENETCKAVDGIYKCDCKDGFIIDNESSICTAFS

anti-Pfs25 mAb 4B7 (antibody)
% inhibition estimate (standard membrane feeding assay, SMFA): 93.8%
